Data taken from patent US20160200782A1 (MOERAE MATRIX, published 2016).

T1: PKCµ(h) (human, UniProt Q15139 1-912, limits assumed)
T1 sequence (looked up): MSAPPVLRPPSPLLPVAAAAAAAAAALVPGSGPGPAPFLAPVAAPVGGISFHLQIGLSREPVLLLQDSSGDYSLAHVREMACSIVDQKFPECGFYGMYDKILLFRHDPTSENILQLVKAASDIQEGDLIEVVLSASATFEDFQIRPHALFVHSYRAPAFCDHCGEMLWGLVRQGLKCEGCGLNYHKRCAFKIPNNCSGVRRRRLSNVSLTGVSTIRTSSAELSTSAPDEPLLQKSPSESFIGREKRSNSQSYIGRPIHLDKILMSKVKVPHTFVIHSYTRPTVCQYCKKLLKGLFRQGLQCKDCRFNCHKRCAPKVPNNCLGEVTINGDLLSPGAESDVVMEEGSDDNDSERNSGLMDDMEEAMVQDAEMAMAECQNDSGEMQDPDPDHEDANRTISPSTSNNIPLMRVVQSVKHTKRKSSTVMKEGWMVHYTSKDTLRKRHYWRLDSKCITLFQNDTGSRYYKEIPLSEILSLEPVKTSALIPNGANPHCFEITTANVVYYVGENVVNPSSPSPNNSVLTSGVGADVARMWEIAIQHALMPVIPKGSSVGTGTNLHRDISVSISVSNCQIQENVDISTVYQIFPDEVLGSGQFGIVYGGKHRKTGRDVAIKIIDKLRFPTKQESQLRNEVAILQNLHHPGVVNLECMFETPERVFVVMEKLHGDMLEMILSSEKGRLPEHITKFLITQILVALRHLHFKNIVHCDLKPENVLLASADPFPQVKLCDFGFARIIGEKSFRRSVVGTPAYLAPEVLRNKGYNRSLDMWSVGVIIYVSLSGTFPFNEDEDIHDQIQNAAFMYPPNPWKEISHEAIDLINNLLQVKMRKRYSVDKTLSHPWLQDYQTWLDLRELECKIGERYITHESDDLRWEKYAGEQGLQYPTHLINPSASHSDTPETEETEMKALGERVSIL

T2: Ret(h) (human, UniProt P07949 658-1114, limits assumed)
T2 sequence (looked up): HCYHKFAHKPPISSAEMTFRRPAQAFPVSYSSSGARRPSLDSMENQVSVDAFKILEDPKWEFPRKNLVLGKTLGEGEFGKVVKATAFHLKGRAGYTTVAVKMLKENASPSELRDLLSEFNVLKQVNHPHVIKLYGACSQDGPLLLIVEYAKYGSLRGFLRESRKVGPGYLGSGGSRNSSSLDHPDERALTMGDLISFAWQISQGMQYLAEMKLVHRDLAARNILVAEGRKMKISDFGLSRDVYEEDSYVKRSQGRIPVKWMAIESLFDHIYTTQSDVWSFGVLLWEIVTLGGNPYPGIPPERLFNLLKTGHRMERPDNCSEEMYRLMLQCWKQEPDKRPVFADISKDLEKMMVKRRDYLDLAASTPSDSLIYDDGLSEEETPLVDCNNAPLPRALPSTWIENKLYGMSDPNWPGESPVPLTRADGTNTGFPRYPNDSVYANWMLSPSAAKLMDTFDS

T3: EphA4(h) (human, UniProt P54764 570-986, limits assumed)
T3 sequence (looked up): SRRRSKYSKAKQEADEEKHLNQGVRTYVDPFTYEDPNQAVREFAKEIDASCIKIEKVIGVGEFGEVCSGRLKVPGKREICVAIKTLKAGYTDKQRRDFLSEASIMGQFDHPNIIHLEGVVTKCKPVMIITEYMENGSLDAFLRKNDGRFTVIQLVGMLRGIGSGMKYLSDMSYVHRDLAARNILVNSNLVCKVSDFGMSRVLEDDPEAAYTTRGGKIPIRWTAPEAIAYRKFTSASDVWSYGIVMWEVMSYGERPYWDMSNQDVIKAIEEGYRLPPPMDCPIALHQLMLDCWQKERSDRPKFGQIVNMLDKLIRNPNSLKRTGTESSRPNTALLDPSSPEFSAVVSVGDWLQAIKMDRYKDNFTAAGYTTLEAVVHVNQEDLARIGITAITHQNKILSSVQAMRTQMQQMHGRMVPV

T4: TAO1(h) (human, UniProt Q7L7X3 1-320, limits assumed)
T4 sequence (looked up): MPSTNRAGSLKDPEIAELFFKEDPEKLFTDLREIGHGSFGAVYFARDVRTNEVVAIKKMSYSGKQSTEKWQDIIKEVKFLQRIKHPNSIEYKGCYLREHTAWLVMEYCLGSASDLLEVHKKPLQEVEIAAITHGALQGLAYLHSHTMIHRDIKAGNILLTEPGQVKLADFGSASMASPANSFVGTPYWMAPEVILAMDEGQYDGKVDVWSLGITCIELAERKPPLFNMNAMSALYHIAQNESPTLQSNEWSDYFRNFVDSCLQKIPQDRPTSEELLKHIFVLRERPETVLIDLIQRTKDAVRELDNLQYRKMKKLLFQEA


Assays:
Assay in all cases: cell-based or functional assay
PKCµ(h) = biological target: T1, PKCµ(h)
PDGFRα(D842V)(h) = PDGFRα(D842V)(h) (human, UniProt P16234 550-1089, limits assumed)
Sequence of PDGFRα(D842V)(h) (P16234 550-1089 D842V limits assumed): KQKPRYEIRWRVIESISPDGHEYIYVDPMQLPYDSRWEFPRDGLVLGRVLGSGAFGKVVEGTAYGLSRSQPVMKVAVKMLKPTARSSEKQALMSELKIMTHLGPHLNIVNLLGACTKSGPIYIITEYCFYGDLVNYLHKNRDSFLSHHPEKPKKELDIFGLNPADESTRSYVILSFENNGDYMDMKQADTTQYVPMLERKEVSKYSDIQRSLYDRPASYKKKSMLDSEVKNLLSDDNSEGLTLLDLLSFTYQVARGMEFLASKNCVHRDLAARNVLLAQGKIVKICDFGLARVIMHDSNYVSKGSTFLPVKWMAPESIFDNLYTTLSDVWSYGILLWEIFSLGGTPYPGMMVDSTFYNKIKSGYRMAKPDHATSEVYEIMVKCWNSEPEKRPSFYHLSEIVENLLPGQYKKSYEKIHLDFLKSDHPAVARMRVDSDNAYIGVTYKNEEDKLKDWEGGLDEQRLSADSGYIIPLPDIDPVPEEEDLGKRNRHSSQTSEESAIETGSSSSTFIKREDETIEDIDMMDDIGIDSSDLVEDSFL

Pim-3(h) = Pim-3(h) (human, UniProt Q86V86 1-326)
CaMKI(h) = CaMKI(h) (human, UniProt Q14012 1-370, limits assumed)
Sequence of CaMKI(h) (Q14012 whole entry): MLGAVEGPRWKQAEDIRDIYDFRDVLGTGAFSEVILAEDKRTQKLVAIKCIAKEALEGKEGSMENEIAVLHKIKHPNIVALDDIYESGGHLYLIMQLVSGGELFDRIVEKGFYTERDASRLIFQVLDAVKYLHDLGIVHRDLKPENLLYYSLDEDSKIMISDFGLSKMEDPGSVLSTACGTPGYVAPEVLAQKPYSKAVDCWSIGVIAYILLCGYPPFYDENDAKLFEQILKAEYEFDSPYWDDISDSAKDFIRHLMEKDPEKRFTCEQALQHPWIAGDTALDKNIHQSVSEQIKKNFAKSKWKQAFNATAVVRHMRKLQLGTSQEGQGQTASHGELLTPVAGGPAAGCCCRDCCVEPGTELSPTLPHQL

Ret(h) = biological target: T2, Ret(h)
EphA4(h) = biological target: T3, EphA4(h)
FGFR3(h) = FGFR3(h) (human, UniProt P22607 397-806)
Sequence of FGFR3(h) (P22607 397-806 limits assumed): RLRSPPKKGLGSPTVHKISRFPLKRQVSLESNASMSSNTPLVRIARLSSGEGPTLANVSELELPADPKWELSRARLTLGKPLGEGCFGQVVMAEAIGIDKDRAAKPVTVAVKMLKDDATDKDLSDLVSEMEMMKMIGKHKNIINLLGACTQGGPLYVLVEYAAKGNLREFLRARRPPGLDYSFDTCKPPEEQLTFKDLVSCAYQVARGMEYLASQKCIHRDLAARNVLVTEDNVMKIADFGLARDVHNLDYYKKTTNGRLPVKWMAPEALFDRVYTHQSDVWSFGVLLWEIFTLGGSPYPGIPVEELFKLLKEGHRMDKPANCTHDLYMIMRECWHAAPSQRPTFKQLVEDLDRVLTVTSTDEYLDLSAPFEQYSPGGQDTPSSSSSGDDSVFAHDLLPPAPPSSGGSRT

DAPK1(h) = DAPK1(h) (human, UniProt P53355 1-289, limits assumed)
Sequence of DAPK1(h) (P53355 1-289 limits assumed): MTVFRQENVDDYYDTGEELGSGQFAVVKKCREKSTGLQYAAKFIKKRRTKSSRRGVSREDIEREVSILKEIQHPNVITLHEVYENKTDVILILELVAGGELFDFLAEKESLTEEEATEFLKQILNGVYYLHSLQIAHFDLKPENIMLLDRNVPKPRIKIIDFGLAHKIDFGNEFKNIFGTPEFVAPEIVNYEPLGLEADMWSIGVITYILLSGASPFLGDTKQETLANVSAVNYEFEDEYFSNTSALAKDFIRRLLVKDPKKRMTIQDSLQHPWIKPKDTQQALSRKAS

PRK2(h) = PRK2(h) (human, UniProt Q16513 501-984, limits assumed)
Sequence of PRK2(h) (Q16513 501-984 limits assumed): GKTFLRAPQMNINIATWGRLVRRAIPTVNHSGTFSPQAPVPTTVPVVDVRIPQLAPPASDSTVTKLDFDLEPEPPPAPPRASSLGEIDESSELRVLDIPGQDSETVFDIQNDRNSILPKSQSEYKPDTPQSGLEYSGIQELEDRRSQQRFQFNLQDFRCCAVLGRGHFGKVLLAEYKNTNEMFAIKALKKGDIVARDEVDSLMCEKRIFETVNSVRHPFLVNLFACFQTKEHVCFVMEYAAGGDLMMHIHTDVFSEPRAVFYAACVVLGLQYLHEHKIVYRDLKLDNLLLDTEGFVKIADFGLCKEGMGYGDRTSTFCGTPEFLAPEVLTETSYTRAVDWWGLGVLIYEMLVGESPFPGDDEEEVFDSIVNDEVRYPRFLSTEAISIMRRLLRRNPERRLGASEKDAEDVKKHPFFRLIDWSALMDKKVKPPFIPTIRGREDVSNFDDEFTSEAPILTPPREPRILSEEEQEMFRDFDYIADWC

JNK1α1(h) = JNK1α1(h) (human, UniProt P45983-2 1-384)
Sequence of JNK1α1(h) (P45983 other isoform, or with tags, fused parts or gaps limits assumed): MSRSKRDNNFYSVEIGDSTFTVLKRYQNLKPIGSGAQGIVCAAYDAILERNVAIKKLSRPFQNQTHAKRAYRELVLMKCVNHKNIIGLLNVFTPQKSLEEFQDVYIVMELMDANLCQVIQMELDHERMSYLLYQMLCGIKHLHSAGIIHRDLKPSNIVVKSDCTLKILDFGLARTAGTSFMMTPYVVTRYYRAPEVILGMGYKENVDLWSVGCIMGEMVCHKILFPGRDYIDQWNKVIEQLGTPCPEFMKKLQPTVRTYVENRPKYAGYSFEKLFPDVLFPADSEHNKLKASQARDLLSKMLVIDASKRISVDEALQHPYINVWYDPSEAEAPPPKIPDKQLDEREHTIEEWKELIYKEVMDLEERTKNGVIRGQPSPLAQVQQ

TAO1(h) = biological target: T4, TAO1(h)
PKCτ(h) = PKCτ(h) (human)
AMPKa1(h) = AMPKa1(h) (human, UniProt Q13131 1-559, limits assumed)
Sequence of AMPKa1(h) (Q13131 whole entry): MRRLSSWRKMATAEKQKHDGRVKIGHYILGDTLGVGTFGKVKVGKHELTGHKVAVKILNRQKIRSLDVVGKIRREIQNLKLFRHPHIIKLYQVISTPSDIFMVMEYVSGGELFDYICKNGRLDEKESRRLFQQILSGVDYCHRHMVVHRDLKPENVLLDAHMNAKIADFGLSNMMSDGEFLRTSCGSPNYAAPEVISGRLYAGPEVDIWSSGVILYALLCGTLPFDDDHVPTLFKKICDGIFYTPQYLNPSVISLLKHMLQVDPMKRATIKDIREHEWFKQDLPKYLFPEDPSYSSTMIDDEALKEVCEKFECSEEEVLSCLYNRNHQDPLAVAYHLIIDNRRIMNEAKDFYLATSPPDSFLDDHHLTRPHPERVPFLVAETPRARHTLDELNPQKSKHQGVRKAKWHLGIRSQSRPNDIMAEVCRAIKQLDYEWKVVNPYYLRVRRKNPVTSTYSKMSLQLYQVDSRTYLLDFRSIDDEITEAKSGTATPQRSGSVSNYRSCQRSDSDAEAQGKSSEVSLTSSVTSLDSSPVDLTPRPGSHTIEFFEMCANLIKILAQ

Ab1(Q252H)(h) = Ab1(Q252H)(h) (human, UniProt P00519 27-1130, limits assumed)
Sequence of Ab1(Q252H)(h) (P00519 27-1130 Q252H limits assumed): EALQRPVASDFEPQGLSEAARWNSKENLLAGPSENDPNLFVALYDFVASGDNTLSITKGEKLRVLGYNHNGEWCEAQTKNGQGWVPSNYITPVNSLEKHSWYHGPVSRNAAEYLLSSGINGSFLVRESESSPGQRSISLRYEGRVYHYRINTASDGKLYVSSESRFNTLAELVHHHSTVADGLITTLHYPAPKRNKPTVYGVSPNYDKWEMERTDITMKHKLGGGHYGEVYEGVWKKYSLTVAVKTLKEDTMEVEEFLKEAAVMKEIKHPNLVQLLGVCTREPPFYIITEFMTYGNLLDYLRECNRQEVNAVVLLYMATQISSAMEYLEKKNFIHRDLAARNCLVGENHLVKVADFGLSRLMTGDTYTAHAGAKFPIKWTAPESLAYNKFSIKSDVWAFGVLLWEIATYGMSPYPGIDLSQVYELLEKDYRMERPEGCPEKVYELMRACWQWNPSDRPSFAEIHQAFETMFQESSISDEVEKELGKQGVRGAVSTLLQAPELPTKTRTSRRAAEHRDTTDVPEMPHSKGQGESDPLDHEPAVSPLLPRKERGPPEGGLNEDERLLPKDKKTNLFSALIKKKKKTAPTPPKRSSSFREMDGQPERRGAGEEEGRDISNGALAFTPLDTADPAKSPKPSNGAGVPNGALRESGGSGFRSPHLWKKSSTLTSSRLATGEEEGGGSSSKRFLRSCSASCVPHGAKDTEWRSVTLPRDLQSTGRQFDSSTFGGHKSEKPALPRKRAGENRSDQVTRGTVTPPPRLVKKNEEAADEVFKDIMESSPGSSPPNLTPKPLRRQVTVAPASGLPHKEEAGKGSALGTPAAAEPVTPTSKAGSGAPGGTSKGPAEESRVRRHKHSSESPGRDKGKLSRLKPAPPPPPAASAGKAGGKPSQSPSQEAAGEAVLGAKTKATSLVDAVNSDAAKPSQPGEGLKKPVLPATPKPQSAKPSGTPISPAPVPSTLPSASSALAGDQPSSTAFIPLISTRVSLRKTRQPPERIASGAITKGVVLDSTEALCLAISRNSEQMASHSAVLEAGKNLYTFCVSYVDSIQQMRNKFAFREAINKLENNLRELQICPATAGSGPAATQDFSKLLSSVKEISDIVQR

Met(D1246N)(h) = Met(D1246N)(h) (human, UniProt P08581-2 974-1408, limits assumed)
Further: test concentration or dose not given here.

Row | % activity (PKCµ(h)) | % activity (PDGFRα(D842V)(h)) | % activity (Pim-3(h)) | % activity (CaMKI(h)) | % activity (Ret(h)) | % activity (EphA4(h)) | % activity (FGFR3(h)) | % activity (DAPK1(h)) | % activity (PRK2(h)) | % activity (JNK1α1(h)) | % activity (TAO1(h)) | % activity (PKCτ(h)) | % activity (AMPKa1(h)) | % activity (Ab1(Q252H)(h)) | % activity (Met(D1246N)(h)) | Binder
1 | 22% | 114% | 80% | 1% | 140% | 88% | 102% | 46% | 33% | 97% | 82% | 68% | 71% | 82% | 82% | FAKLAARLYRKALARQLGVAA [MMI-0300]
2 | 14% | 118% | 80% | 0% | 145% | 65% | 0% | 36% | 27% | 98% | 73% | 46% | 87% | 98% | 31% | KAFAKLAARLYRKALARQLGVAA [MMI-0400]
